From PMC13013135, “[^99mTc]Tc-PSMA-HSG for PSMA-targeted Hybrid Surgical Guidance: a new addition to the PSMA-I&S/I&T family” (European Journal of Nuclear Medicine and Molecular Imaging, 2025)

What was measured:
[1] = system: PSMA expressing LNCaP cells; experiment: Dual tracer internalization assay; format: cell-based, human; conditions: 60 min, 37 °C, 0.5 nM tracer, normalized to ([^125I]IBA)KuE
Procedure: Competitive binding experiments (IC50) were carried out in accordance with an established protocol using PSMA-expressing LNCaP cells and ([^125I]I-BA)KuE as standard radioligand. […] Please see the Supplementary Material for experimental details. […] The supernatant was removed, cells were washed with assay medium, and an acid wash (50 mM NaOAc in saline, pH 4.5) was performed to remove membrane-associated activity. Cells were then lysed using 1N NaOH, and internalized activity was quantified using a γ-counter. […] Tocris Bioscience, Bristol, UK) and normalized to the specific internalization observed for the radioiodinated reference compound in the same experiment. Data represent means ± SD (n=3) from three separate determinations.

[2] = system: human serum; experiment: Plasma protein binding (B50), ultrafiltration, human serum; format: in vitro ADME
Procedure: (§1) A detailed experimental procedure is provided in the Supplementary Material. […] Briefly, protein solutions (maximum concentration: […] Samples were briefly vortexed and incubated for 30 min at 37 °C. […] The filter units were then removed from the centrifugal tubes and washed twice with 300 µL PBS to recover the protein fraction. The activity in the filtrate, filter and protein fraction were then quantified using a γ-counter. […] The percentages of radioligand bound to the respective proteins are represented as means ± standard deviation (SD) of three independent experiments.

[3] = system: mouse serum; experiment: Plasma protein binding (B50), ultrafiltration, mouse serum; format: in vitro ADME
Procedure: as §1

[4] = in vivo; conditions: male, NSG, mouse, iv, 1 nmol/mouse, total radioactivity, biodistribution
Procedure: As documented in the literature, engineered PC3-Pip cells express particularly high PSMA levels, which are not representative for the situation in human tumors (mean number of PSMA binding sites = 4.9 × 10^6 sites/cell for PC3-Pip cells vs. 5.9 × 10^5 sites/cell for LNCaP [60]). Thus, to correlate quantitative data with in vivo/ex vivo fluorescence signals, a biodistribution study was conducted under the same conditions as the fluorescence imaging. NSG mice bearing PC3-Pip (PSMA+) and PC3 WT (PSMA-) xenografts on opposite shoulders received [^99mTc]Tc-PSMA-HSG (1 nmol), and biodistribution was assessed at 2 h p.i. (Supplementary Table 1). The overall distribution matched previous data from LNCaP-bearing mice (Table 3), but tumor uptake was over twice as high (26.6 ± 5.0%iD/g). Low uptake in PC3 WT tumors (1.6 ± 0.3%iD/g) confirmed PSMA-specificity.
PC-3 PIP xenografts were established by subcutaneous injection of 5 × 10^6 PC3-PIP cells/mouse using 8–12-week-old male NSG mice (in-house breeding, Dpt. of Oncology, University of Lausanne) as previously described. Tumors reached a size of 4-8 mm in diameter after 5-6 days and were then immediately used for the fluorescence imaging studies.

## C[N+]1=C(/C=C/C=C/C=C2/N(CCCCCC(=O)NCCCC[C@@H](NC(=O)[C@@H](CO)NC(=O)[C@@H](CO)NC(=O)[C@@H](CO)NC(=O)CS)C(=O)N[C@H](Cc3ccc(O)cc3)C(=O)N[C@H](Cc3ccc4ccccc4c3)C(=O)N[C@H](CCCCNC(=O)CCCCCCC(=O)NCCCC[C@H](NC(=O)N[C@@H](CCC(=O)O)C(=O)O)C(=O)O)C(=O)O)c3ccc(S(=O)(=O)[O-])cc3C2(C)C)C(C)(C)c2cc(S(=O)(=O)O)ccc21 [[^99mTc]Tc-PSMA-HSG, metal not drawn]
[1]
  internalization [% of reference]: 14 ± 1 % of reference
[2]
  B50 HS: 220 ± 35
[3]
  B50 MS: 142 ± 22
[4]; PC3-Pip tumor
  tissue uptake at 2 h: 26.6 ± 5 %ID/g
[4]; PC3 WT tumor
  tissue uptake at 2 h: 1.6 ± 0.3 %ID/g
[4]; blood
  tissue uptake at 2 h: 2.8 ± 0.4 %ID/g
[4]; heart
  tissue uptake at 2 h: 1.5 ± 0.3 %ID/g
[4]; intestines
  tissue uptake at 2 h: 0.9 ± 0.1 %ID/g
[4]; kidneys
  tissue uptake at 2 h: 100 ± 8.2 %ID/g
[4]; liver
  tissue uptake at 2 h: 2.9 ± 0.5 %ID/g
[4]; lung
  tissue uptake at 2 h: 4.1 ± 1.2 %ID/g
[4]; muscle
  tissue uptake at 2 h: 0.6 ± 0.1 %ID/g
[4]; pancreas
  tissue uptake at 2 h: 0.9 ± 0.2 %ID/g
[4]; salivary glands
  tissue uptake at 2 h: 2.2 ± 0.4 %ID/g
[4]; spleen
  tissue uptake at 2 h: 8.2 ± 0.7 %ID/g
[4]; stomach
  tissue uptake at 2 h: 1.5 ± 0.1 %ID/g
